Test results taken from patent publication US20110064746A1 (published 2011).

B1: anti-HMGB-1 mAb 3B1 (antibody, V domains shown)
VH: QVQLQQPGAELVKPGASVKLSCKASGYTFTSYWMHWVKQRPGQGLEWIGNIDPSDSETHYNQKFKDKATLTVDKSSSTAYMQLNSLTSEDSAVYYCAKRGYYGYDYWGQGTTLTV
VL: DVLMTQTPLSLPVSLGDQASISCRSSQSIVHSNGNTYLEWYLQKAGQSPKLLIYKVSNRFSGVPDRFSGSGSGTDFTLKISRVEAEDLGVYYCFQGAHVPRTFGGGTKLEIK
B2: anti-HMGB-1 mAb 3E8 (antibody, V domains shown)
VH: QVQLQQSGPELVKPGASVKISCKASGYAFSNYWMNWVKQRPGKGLEWIGRIYPGDGDMAYNGKFRGKATLTADKSSSTAYMQLSSLTSEDSAVYFCARSLDGYVGYVMDYWGQGTSVTVSS
VL: DIVMTQAAPSVPVTPGESVSISCRSSKSLLHRNGNIFLYWFLQRPGQSPQLLIYRMSNLASGVPDRFSGSGSGTAFTLRISRVETEDVGVYYCMQHLEYPFTFGSGTKLEIK

Target: T1, recombinant HMGB-1 (Homo sapiens (Human), UniProt P09429 1-215)
T1 construct: also called recombinant HMGB1 protein; recombinant HMGB-1 obtained from R&D system
T1 sequence: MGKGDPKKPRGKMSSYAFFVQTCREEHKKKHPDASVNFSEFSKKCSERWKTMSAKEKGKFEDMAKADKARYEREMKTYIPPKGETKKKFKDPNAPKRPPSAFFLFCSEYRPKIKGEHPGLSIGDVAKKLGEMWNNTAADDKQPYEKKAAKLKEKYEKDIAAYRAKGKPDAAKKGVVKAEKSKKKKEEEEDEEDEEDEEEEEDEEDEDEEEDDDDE
Assay: SPR, BIACORE3000

Binder | Kd
B1 | 7.8 nM
B2 | 1.3 nM
